Laboratory results as given in patent US20050164929A1, “Methods of preventing and treating inflammatory bowel disease” (LUPINE LOGIC, INC., priority 2000, published 2005).
Where “and” joins values, the source holds several entries; their conditions need not be identical. Identical values can stand only once. Marks after values point to notes of the source that are not given here. Residues, ends and D or L forms follow the SMILES beside them. *: point of attachment. Cbz = O=C(OCc1ccccc1)*

Tests used:
[1] = system: NIH 3T3 cells; experiment: BrdU incorporation, truncated vs full length FGF-20 conditioned medium; format: cell-based, mouse; details: 10 ng/mL
Experimental: NIH 3T3 mouse fibroblasts were serum-starved, incubated with the indicated factor for 18 hours, and analyzed by a BrdU incorporation assay.
A vector expressing amino acids 24-211 of FGF-20, referred to as CG53135-17 (SEQ ID NOs:31 and 32), was prepared. The incorporation of BrdU by NIH 3T3 cells treated with conditioned medium obtained using the vector incorporating this truncated form was compared to the incorporation in response to treatment with conditioned medium using a vector encoding full length FGF-20. This experiment was carried out as described above.

[2] = system: NIH 3T3 murine embryonic fibroblast cells; experiment: BrdU incorporation bioassay of RP-HPLC peak fractions; format: cell-based, mouse; details: for PI200: concentration giving BrdU incorporation at 2 times the background, serum-starved NIH 3T3, 18 hours; for induction of DNA synthesis / activity in proliferation assays: BrdU incorporation
Experimental: The biological activity of CG53135-05 related species collected from the 4 peaks identified by LC and MS was measured by treatment of serum-starved cultured NIH 3T3 murine embryonic fibroblast cells with various doses of the isolated CG53135-05 related species and measurement of incorporation of bromodeoxyuridine (BrdU) during DNA synthesis. For this assay, cells were cultured in Dulbecco's modified Eagle's medium supplemented with 10% fetal bovine serum. Cells were grown in 96-well plates to confluence at 37° C. in 10% CO2/air and then starved in Dulbecco's modified Eagle's medium for 24-72 hours. CG53135-05-related species were added and incubated for 18 hours at 37° C. in 10% CO2/air. BrdU ([…]) was added and incubated with the cells for 2 hours at 37° C. in 10% CO2/air. Incorporation of BrdU was measured by enzyme-linked immunosorbent assay according to the manufacturer's specifications (Roche Molecular Biochemicals, Indianapolis, Ind.).
Peak 4 was not included in this assay since insufficient material was collected (Peak 4 is less than 3% of the total peak area for CG53135-05).

[3] = system: soluble FGF receptors (FGFRs); experiment: Receptor binding specificity: control growth factors with soluble FGFRs; format: cell-based; details: all soluble FGFRs under analysis
Experimental: NIH 3T3 cells were serum-starved, incubated with the indicated growth factor (square=PDGF-BB; triangle=aFGF; circle=FGF-CX) either alone or together with the indicated soluble FGFR, and analyzed by a BrdU incorporation assay. Experiments were performed in triplicate and are represented as the percent BrdU increase in incorporation of BrdU relative to cells receiving the growth factor alone.
To determine the receptor binding specificity of FGF-20, we examined the effect of soluble FGF receptors (FGFRs) on the induction of DNA synthesis in NIH 3T3 cells by recombinant FGF-20. Four receptors have been identified to date (Klint P and Claesson-Welsh L. Front. Biosci., 4: 165-177, 1999; Xu X, et al. Cell Tissue Res., 296: 33-43, 1999). Soluble receptors for FGFR1β(IIIc), FGFR2a(IIIb), FGFR2β(IIIb), FGFR2a(IIIc), FGFR3a(IIIc) and FGFR4 were utilized.

[4] = system: COX-2 induction in Caco-2 cells; experiment: COX-2 induction by CG53135 in presence of proteosome inhibitor; format: cell-based, human
Experimental: FIG. 18. Effect of NFkB on activation of CG53135 and stimulation of COX-2 in intestinal epithelial cells. NFkB promoter activity was assayed in HT-29 and Caco2 cell lines in the presence of CG53135-01 E. coli purified product.
ITF promoter activity in HT-29 cells was assayed. […] Thus NF-kB may not have a role inducing COX-2 expression in the presence of CG53135.

[5] = Solubility of protein in formulation buffers; format: physicochemical; details: for Solubility of Process 2 protein, Arginine Sulfate vs Arginine Phosphate: Batches #K, #J
Experimental: Four unexpected properties of CG53135 were discovered and used to develop the new formulation: (1) high concentration of arginine, >0.4 M, increases the solubility to >30 mg/mL; (2) the use of sulfate salt of arginine increases the solubility by at least 2-6 folds; (3) the optimal concentration of sodium phosphate as a buffering salt is 50 mM, with a solubility of at least 1-2 fold increase in comparison with concentrations at 25, 75, and 100 mM; and (4) adding a surfactant during the diafiltration/ultrafiltration step minimizes the formation of aggregates. In development the lyophilized formulation, each component of the new formulation was evaluated for solubility individually. CG53135-05 was precipitated using the precipitate buffer (50 mM NaPi, 5 mM EDTA, 1 M L-Arginine HCl, 2.5 M (NH4)2SO4). The precipitate was washed with 25 mM sodium phosphate buffer at pH 6.5 to remove the residual arginine and ammonium sulfate. The following are examples of data.

[6] = Turbidity (aggregates) after ultrafiltration/diafiltration; format: physicochemical
Experimental: The experiment was conducted by performing the ultrafiltration/diafiltration at 2.5 mg/mL CG53135-05 in 0.2M arginine and 0.05 M sodium phosphate buffer at pH 7.0. After exchanging with 7 volumes of the final buffer (0.5M arginine and 0.05 M sodium phosphate buffer at pH 7.0), the diafiltrate is concentrated to ˜20 mg/mL. The diafiltrate is then diluted with the final buffer to ˜12.5 mg/mL and lyophilized. Polysorbate 80 is added either before or after the diafiltration to a final concentration of 0.01%.
All formulation contains 0.5 M arginine, 0.05 M sodium phosphate monobasic, and 0.01% polysorbate 80.

[7] = system: endothelial cells; experiment: Proliferation summary for variants; format: cell-based; details: in vitro
Experimental: (§1) Experiments were performed to evaluate the proliferative response of representative cell types to CG53135, e.g., a full-length tagged variant (CG53135-01), a deletion variant (CG53135-02), and a full-length codon-optimized untagged variant (CG53135-05).
(§2) CG53135-02 (batch 1 and 13) was also used in these experiments. Protein was expressed in E. coli, BLR (DE3) (Novagen), transformed with the deletion variant CG53135-02 inserted into a pET24a vector (Novagen). A research cell bank (RCB) was produced and cell paste containing CG53135-02 was produced by fermentation of cells originating from the RCB. Cell membranes were disrupted by high-pressure homogenization, and lysate was clarified by centrifugation. CG53135-02 was purified by ion exchange chromatography. The final protein fraction was dialyzed against the formulation buffer (100 mM citrate, 1 mM ethylenediaminetetraacetic acid (EDTA), and 1 M L-arginine).
(§3) CG53135-05, DEV10, which were also used in these experiments, was prepared by Cambrex Biosciences (Hopkinton, Mass.) according to Process 1 as described in Section 6.18.1, infra.
(§4) BrdU Incorporation: proliferative activity was measured by treatment of serum-starved cultured cells with a given agent and measurement of BrdU incorporation during DNA synthesis. Cells were cultured in respective manufacturer recommended basal growth medium supplemented with 10% fetal bovine serum or 10% calf serum as per manufacturer recommendations. Cells were grown in 96-well plates to confluence at 37° C. in 10% CO2/air (to subconfluence at 5% CO2 for dedifferentiated chondrocytes and NHOst). Cells were then starved in respective basal growth medium for 24-72 hours. CG53135 protein purified from E. coli or pCEP4/Sec or pCEP4/Sec-FGF 20× enriched conditioned medium was added (10 μL/100 μL of culture) for 18 hours. BrdU (10 μM final concentration) was then added and incubated with the cells for 5 hours. BrdU incorporation was assayed according to the manufacturer's specifications (Roche Molecular Biochemicals, Indianapolis, Ind.).
(§5) The above described experiments were also performed using CG53135-02 and CG53135-05 protein products, and the results are summarized in the Conclusion section below.

[8] = system: mesenchymal and epithelial cells; experiment: Proliferation summary for variants; format: cell-based; details: in vitro
Experimental: as §1, §2, §3, §4, §5

**Q.** With “CG53135-17: CG53135-05 minus first 23 amino acids at the N-terminus (amino acids 24-211 of FGF-20)” as the compound, how does the “activity (BrdU incorporation) at lowest concentration tested” value [1] read?
**A.** The value was “retains high activity”.

**Q.** For “CG53135-05 (DEV 10): Process 1 reference standard of CG53135-05 E. coli purified product”, which PI200 [2] is on record?
**A.** Its PI200 is 1.0 ng/mL.

**Q.** Which results are given for “Peak 3: RP-HPLC peak at 28.5 min: CG53135-05 (residues 1-211)”?
**A.** induction of DNA synthesis / activity in proliferation assays [2]: dose-dependent manner; PI200 [2]: 8.6 ng/mL

**Q.** With “aFGF: acidic FGF, a factor known to interact with all of the FGFRs under analysis” as the compound, how does the “effect of soluble receptor reagents on induction of DNA synthesis by control factor” value [3] read?
**A.** The value was “inhibit the induction of DNA synthesis”.

**Q.** For `CC(C)C[C@@H](C=O)NC(=O)[C@H](CC(C)C)NC(=O)[C@H](CC(C)C)NC(=O)OCc1ccccc1` [MG132] (Cbz-Leu-Leu-Leu-aldehyde), which “block of COX-2 induction by CG53135” value [4] is on record?
**A.** Its value is “does not block COX-2 induction”.

**Q.** Which “induction of DNA synthesis / activity in proliferation assays” value [2] does the source give for “Peak 2: RP-HPLC peak at 27.3 min: CG53135-13 (residues 3-211)” here?
**A.** Its value is “dose-dependent manner”.

**Q.** What about the PI200 [2] of the same compound?
**A.** The PI200 was 11 ng/mL.

**Q.** For PDGF-BB: control growth factor, which “effect of soluble receptor reagents on induction of DNA synthesis by control factor” value [3] is on record?
**A.** Its value is “None of the soluble receptor reagents interfered”.

**Q.** With “Process 2 protein: protein product (CG53135-05) produced by the improved production process, Process 2” as the compound, how does the “Solubility of Process 2 protein” value ([5]; Arginine 0.05 M, Batches #1-#3) read?
**A.** Its value is 0.7 mg/mL and 0.6 mg/mL and 0.5 mg/mL.

**Q.** And the “Solubility of Process 2 protein” value ([5]; Arginine 0.15 M, Batches #1-#3)?
**A.** The value was 2.2 mg/mL and 1.6 mg/mL.

**Q.** What about the “Solubility of Process 2 protein” value ([5]; Arginine 0.20 M, Batches #1-#3) of the same compound?
**A.** The value was 3.0 mg/mL and 4.7 mg/mL and 4.3 mg/mL.

**Q.** And the “Solubility of Process 2 protein” value ([5]; Arginine 0.30 M, Batch #4)?
**A.** The value was 5.8 mg/mL.

**Q.** And the “Solubility of Process 2 protein” value ([5]; Arginine 0.35 M, Batch #4)?
**A.** The value was 10.1 mg/mL.

**Q.** What about the “Solubility of Process 2 protein” value ([5]; Arginine 0.40 M, Batch #4) of the same compound?
**A.** Its value is 9.8 mg/mL.

**Q.** What about the “Solubility of Process 2 protein” value ([5]; Arginine 0.45 M, Batch #4) of the same compound?
**A.** Its value is 32.3 mg/mL.

**Q.** And the “Solubility of Process 2 protein” value ([5]; Arginine 0.50 M, Batch #4 (not sufficient protein to be dissolved) and #5)?
**A.** Its value is 23.8* mg/mL and 37 mg/mL.

**Q.** And the “Solubility of Process 2 protein, Arginine Sulfate vs Arginine Phosphate” value ([5]; first formulation line: 50 mM sodium phosphate monobasic and 0.15 M Arginine at pH 7)?
**A.** Its value is 4400 µg/mL and 2300 µg/mL.

**Q.** What about the “Solubility of Process 2 protein, Arginine Sulfate vs Arginine Phosphate” value ([5]; second formulation line: 50 mM sodium phosphate monobasic and 0.15 M Arginine at pH 7) of the same compound?
**A.** Its value is 6500 µg/mL and 5200 µg/mL.

**Q.** And the “Solubility of Process 2 protein” value ([5]; sodium phosphate monobasic 25 mM, 0.2 M arginine, Batches #A-#E)?
**A.** The value was 4.01 mg/mL and 2.4 mg/mL and 2.6 mg/mL and 3.59 mg/mL.

**Q.** And the “Solubility of Process 2 protein” value ([5]; sodium phosphate monobasic 50 mM, 0.2 M arginine, Batches #A-#E)?
**A.** The value was 5.47 mg/mL and 4.7 mg/mL and 3.3 mg/mL and 4.3 mg/mL and 4.81 mg/mL.

**Q.** What about the “Solubility of Process 2 protein” value ([5]; sodium phosphate monobasic 75 mM, 0.2 M arginine, Batches #A-#E) of the same compound?
**A.** Its value is 4.06 mg/mL and 2.5 mg/mL and 2.6 mg/mL and 3.0 mg/mL and 2.38 mg/mL.

**Q.** And the “Solubility of Process 2 protein” value ([5]; sodium phosphate monobasic 100 mM, 0.2 M arginine, Batches #A-#E)?
**A.** The value was 3.78 mg/mL and 2.8 mg/mL and 2.4 mg/mL and 2.9 mg/mL and 2.47 mg/mL.

**Q.** What about the Turbidity ([6]; Polysorbate added during ultrafiltration/diafiltration: No, 13.0 mg/mL) of the same compound?
**A.** The Turbidity was 4.6 NTU.

**Q.** And the Turbidity ([6]; Polysorbate added during ultrafiltration/diafiltration: Yes, 12.5 mg/mL)?
**A.** The Turbidity was 20.9 NTU.

**Q.** What does the source list for “CG53135-02: Codon optimized, amino acids 2-54 of SEQ ID NO: 2 removed; SEQ ID NOs 3 and 4”?
**A.** proliferation of endothelial cells [7]: induces proliferation; proliferation of mesenchymal and epithelial cells [8]: induce proliferation
